{"source": "patent US20130303441", "key": {"[1]": {"target": "T1, pGS-1 peptide substrate, YRRAAVPPSPSLSRHSSPSQS(p)EDEEE", "T1 chain": "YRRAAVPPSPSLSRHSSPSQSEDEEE"}, "[2]": {"target": "T2, p9CREB peptide substrate, ILSRRPS(p)YR", "T2 chain": "ILSRRPSYR"}, "[3]": {"target": "T3, pIRS-1 peptide substrate, RREGGMSRPAS(p)VDG", "T3 chain": "RREGGMSRPASVDG"}, "[4]": {"target": "T4, L803-mts, cell permeable variant of L803 with myristic acid attached to its N-terminal", "T4 chain": "GKEAPPAPPQSP"}}, "data": [{"protein": "GSK-3β F93A mutant (protein) MSGRPRTTSFAESCKPVQQPSAFGSMKVSRDKDGSKVTTVVATPGQGPDRPQEVSYTDTKVIGNGSFGVVYQAKLCDSGELVAIKKVLQDKRAKNRELQIMRKLDHCNIVRLRYFFYSSGEKKDEVYLNLVLDYVPETVYRVARHYSRAKQTLPVIYVKLYMYQLFRSLAYIHSFGICHRDIKPQNLLLDPDTAVLKLCDFGSAKQLVRGEPNVSYICSRYYRAPELIFGATDYTSSIDVWSAGCVLAELLLGQPIFPGDSGVDQLVEIIKVLGTPTREQIREMNPNYTEFKFPQIKAHPWTKDSSGTGHFTSGVRVFRPRTPPEAIALCSRLLEYTPTARLTPLEACAHSFFDELRDPNVKLPNGRDTPALFNFTTQELSSNPPLATILIPPHARIQAAASTPTNATAASDANTGDRGQTNNAASASASNST", "values": [{"measurement": "Substrate phosphorylation (% of WTGSK-3β), in vitro kinase assay (% of WT GSK-3β)", "setting": "[1]", "value": 13}, {"measurement": "Substrate phosphorylation (% of WTGSK-3β), in vitro kinase assay (% of WT GSK-3β)", "setting": "[2]", "value": 46}, {"measurement": "Substrate phosphorylation (% of WTGSK-3β), in vitro kinase assay (% of WT GSK-3β)", "setting": "[3]", "value": 42}]}, {"protein": "GSK-3β K94A mutant (protein) MSGRPRTTSFAESCKPVQQPSAFGSMKVSRDKDGSKVTTVVATPGQGPDRPQEVSYTDTKVIGNGSFGVVYQAKLCDSGELVAIKKVLQDKRFANRELQIMRKLDHCNIVRLRYFFYSSGEKKDEVYLNLVLDYVPETVYRVARHYSRAKQTLPVIYVKLYMYQLFRSLAYIHSFGICHRDIKPQNLLLDPDTAVLKLCDFGSAKQLVRGEPNVSYICSRYYRAPELIFGATDYTSSIDVWSAGCVLAELLLGQPIFPGDSGVDQLVEIIKVLGTPTREQIREMNPNYTEFKFPQIKAHPWTKDSSGTGHFTSGVRVFRPRTPPEAIALCSRLLEYTPTARLTPLEACAHSFFDELRDPNVKLPNGRDTPALFNFTTQELSSNPPLATILIPPHARIQAAASTPTNATAASDANTGDRGQTNNAASASASNST", "values": [{"measurement": "Substrate phosphorylation (% of WTGSK-3β), in vitro kinase assay (% of WT GSK-3β)", "setting": "[1]", "value": 19}, {"measurement": "Substrate phosphorylation (% of WTGSK-3β), in vitro kinase assay (% of WT GSK-3β)", "setting": "[2]", "value": 71}, {"measurement": "Substrate phosphorylation (% of WTGSK-3β), in vitro kinase assay (% of WT GSK-3β)", "setting": "[3]", "value": 52}]}, {"protein": "GSK-3β D90A mutant (protein) MSGRPRTTSFAESCKPVQQPSAFGSMKVSRDKDGSKVTTVVATPGQGPDRPQEVSYTDTKVIGNGSFGVVYQAKLCDSGELVAIKKVLQAKRFKNRELQIMRKLDHCNIVRLRYFFYSSGEKKDEVYLNLVLDYVPETVYRVARHYSRAKQTLPVIYVKLYMYQLFRSLAYIHSFGICHRDIKPQNLLLDPDTAVLKLCDFGSAKQLVRGEPNVSYICSRYYRAPELIFGATDYTSSIDVWSAGCVLAELLLGQPIFPGDSGVDQLVEIIKVLGTPTREQIREMNPNYTEFKFPQIKAHPWTKDSSGTGHFTSGVRVFRPRTPPEAIALCSRLLEYTPTARLTPLEACAHSFFDELRDPNVKLPNGRDTPALFNFTTQELSSNPPLATILIPPHARIQAAASTPTNATAASDANTGDRGQTNNAASASASNST", "values": [{"measurement": "Substrate phosphorylation (% of WTGSK-3β), in vitro kinase assay (% of WT GSK-3β)", "setting": "[1]", "value": 83}, {"measurement": "Substrate phosphorylation (% of WTGSK-3β), in vitro kinase assay (% of WT GSK-3β)", "setting": "[2]", "value": 92}, {"measurement": "Substrate phosphorylation (% of WTGSK-3β), in vitro kinase assay (% of WT GSK-3β)", "setting": "[3]", "value": 88}]}, {"protein": "wild-type (WT) GSK-3β (protein) MSGRPRTTSFAESCKPVQQPSAFGSMKVSRDKDGSKVTTVVATPGQGPDRPQEVSYTDTKVIGNGSFGVVYQAKLCDSGELVAIKKVLQDKRFKNRELQIMRKLDHCNIVRLRYFFYSSGEKKDEVYLNLVLDYVPETVYRVARHYSRAKQTLPVIYVKLYMYQLFRSLAYIHSFGICHRDIKPQNLLLDPDTAVLKLCDFGSAKQLVRGEPNVSYICSRYYRAPELIFGATDYTSSIDVWSAGCVLAELLLGQPIFPGDSGVDQLVEIIKVLGTPTREQIREMNPNYTEFKFPQIKAHPWTKDSSGTGHFTSGVRVFRPRTPPEAIALCSRLLEYTPTARLTPLEACAHSFFDELRDPNVKLPNGRDTPALFNFTTQELSSNPPLATILIPPHARIQAAASTPTNATAASDANTGDRGQTNNAASASASNST", "values": [{"measurement": "in vitro kinase assays using pIRS-1, p9CREB and pGS-1 substrate in the presence or absence of L803-mts (100 µM)", "setting": "[4]", "value": "L803-mts competes with various substrates"}]}, {"protein": "GSK-3β K91A mutant (protein) MSGRPRTTSFAESCKPVQQPSAFGSMKVSRDKDGSKVTTVVATPGQGPDRPQEVSYTDTKVIGNGSFGVVYQAKLCDSGELVAIKKVLQDARFKNRELQIMRKLDHCNIVRLRYFFYSSGEKKDEVYLNLVLDYVPETVYRVARHYSRAKQTLPVIYVKLYMYQLFRSLAYIHSFGICHRDIKPQNLLLDPDTAVLKLCDFGSAKQLVRGEPNVSYICSRYYRAPELIFGATDYTSSIDVWSAGCVLAELLLGQPIFPGDSGVDQLVEIIKVLGTPTREQIREMNPNYTEFKFPQIKAHPWTKDSSGTGHFTSGVRVFRPRTPPEAIALCSRLLEYTPTARLTPLEACAHSFFDELRDPNVKLPNGRDTPALFNFTTQELSSNPPLATILIPPHARIQAAASTPTNATAASDANTGDRGQTNNAASASASNST", "values": [{"measurement": "Substrate phosphorylation (% of WTGSK-3β), in vitro kinase assay (% of WT GSK-3β)", "setting": "[1]", "value": 119}, {"measurement": "Substrate phosphorylation (% of WTGSK-3β), in vitro kinase assay (% of WT GSK-3β)", "setting": "[2]", "value": 161}, {"measurement": "Substrate phosphorylation (% of WTGSK-3β), in vitro kinase assay (% of WT GSK-3β)", "setting": "[3]", "value": 140}]}, {"protein": "GSK-3β R92A mutant (protein) MSGRPRTTSFAESCKPVQQPSAFGSMKVSRDKDGSKVTTVVATPGQGPDRPQEVSYTDTKVIGNGSFGVVYQAKLCDSGELVAIKKVLQDKAFKNRELQIMRKLDHCNIVRLRYFFYSSGEKKDEVYLNLVLDYVPETVYRVARHYSRAKQTLPVIYVKLYMYQLFRSLAYIHSFGICHRDIKPQNLLLDPDTAVLKLCDFGSAKQLVRGEPNVSYICSRYYRAPELIFGATDYTSSIDVWSAGCVLAELLLGQPIFPGDSGVDQLVEIIKVLGTPTREQIREMNPNYTEFKFPQIKAHPWTKDSSGTGHFTSGVRVFRPRTPPEAIALCSRLLEYTPTARLTPLEACAHSFFDELRDPNVKLPNGRDTPALFNFTTQELSSNPPLATILIPPHARIQAAASTPTNATAASDANTGDRGQTNNAASASASNST", "values": [{"measurement": "Substrate phosphorylation (% of WTGSK-3β), in vitro kinase assay (% of WT GSK-3β)", "setting": "[1]", "value": 41}, {"measurement": "Substrate phosphorylation (% of WTGSK-3β), in vitro kinase assay (% of WT GSK-3β)", "setting": "[2]", "value": 49}, {"measurement": "Substrate phosphorylation (% of WTGSK-3β), in vitro kinase assay (% of WT GSK-3β)", "setting": "[3]", "value": 60}]}]}
